Results published in US20170101454A1 (Novo Nordisk, published 2017).
Starred links: 1 amine or outer side, 2 acyl side, 3 side chain; linkers in the order of their positions; H or OH if unused. Non-standard residues stand in square brackets, D forms with d. Groups on a side chain read outwards from the residue. No end group written: not given here. *: point of attachment. C18 diacid = O=C(O)CCCCCCCCCCCCCCCCC(=O)*; γGlu = O=C(O)[C@H](CCC(=O)[*:2])N[*:1]; Ac4c = NC1(C(=O)O)CCC1; AEEA = NCCOCCOCC(=O)O; Aib = CC(C)(N)C(=O)O

B1: N^ε28-[(4S)-4-carboxy-4-[[(4S)-4-carboxy-4-[[2-[2-[2-[[2-[2-[2-[[(4S)-4-carboxy-4-(17-carboxyheptadecanoylamino)butanoyl]amino]ethoxy]ethoxy]acetyl]amino]ethoxy … (peptide)
peptide: H[Aib]QGTFTSDYSKYLESRRAQDFVAWLIK([γGlu-γGlu-AEEA-AEEA-γGlu-C18 diacid])T-NH2
modifications: N-terminus assumed
SMILES: CC[C@H](C)[C@H](NC(=O)[C@H](CC(C)C)NC(=O)[C@H](Cc1c[nH]c2ccccc12)NC(=O)[C@H](C)NC(=O)[C@@H](NC(=O)[C@H](Cc1ccccc1)NC(=O)[C@H](CC(=O)O)NC(=O)[C@H](CCC(N)=O)NC(=O)[C@H](C)NC(=O)[C@H](CCCNC(=N)N)NC(=O)[C@H](CCCNC(=N)N)NC(=O)[C@H](CO)NC(=O)[C@H](CCC(=O)O)NC(=O)[C@H](CC(C)C)NC(=O)[C@H](Cc1ccc(O)cc1)NC(=O)[C@H](CCCCN)NC(=O)[C@H](CO)NC(=O)[C@H](Cc1ccc(O)cc1)NC(=O)[C@H](CC(=O)O)NC(=O)[C@H](CO)NC(=O)[C@@H](NC(=O)[C@H](Cc1ccccc1)NC(=O)[C@@H](NC(=O)CNC(=O)[C@H](CCC(N)=O)NC(=O)C(C)(C)NC(=O)[C@@H](N)Cc1c[nH]cn1)[C@@H](C)O)[C@@H](C)O)C(C)C)C(=O)N[C@@H](CCCCNC(=O)CC[C@H](NC(=O)CC[C@H](NC(=O)COCCOCCNC(=O)COCCOCCNC(=O)CC[C@H](NC(=O)CCCCCCCCCCCCCCCCC(=O)O)C(=O)O)C(=O)O)C(=O)O)C(=O)N[C@H](C(N)=O)[C@@H](C)O
notes: also called Chem. 34; Chem 34
B2: N^ε28-[(4S)-4-carboxy-4-[[(4S)-4-carboxy-4-[[2-[2-[2-[[2-[2-[2-[[(4S)-4-carboxy-4-[[(4S)-4-carboxy-4-(17-carboxyheptadecanoylamino)butanoyl]amino]butanoyl]amino … (peptide)
peptide: H[Aib]QGTFTSDLSKYLESRRAREFVQWLIK([γGlu-γGlu-AEEA-AEEA-γGlu-γGlu-C18 diacid])T-NH2
modifications: N-terminus assumed
SMILES: CC[C@H](C)[C@H](NC(=O)[C@H](CC(C)C)NC(=O)[C@H](Cc1c[nH]c2ccccc12)NC(=O)[C@H](CCC(N)=O)NC(=O)[C@@H](NC(=O)[C@H](Cc1ccccc1)NC(=O)[C@H](CCC(=O)O)NC(=O)[C@H](CCCNC(=N)N)NC(=O)[C@H](C)NC(=O)[C@H](CCCNC(=N)N)NC(=O)[C@H](CCCNC(=N)N)NC(=O)[C@H](CO)NC(=O)[C@H](CCC(=O)O)NC(=O)[C@H](CC(C)C)NC(=O)[C@H](Cc1ccc(O)cc1)NC(=O)[C@H](CCCCN)NC(=O)[C@H](CO)NC(=O)[C@H](CC(C)C)NC(=O)[C@H](CC(=O)O)NC(=O)[C@H](CO)NC(=O)[C@@H](NC(=O)[C@H](Cc1ccccc1)NC(=O)[C@@H](NC(=O)CNC(=O)[C@H](CCC(N)=O)NC(=O)C(C)(C)NC(=O)[C@@H](N)Cc1c[nH]cn1)[C@@H](C)O)[C@@H](C)O)C(C)C)C(=O)N[C@@H](CCCCNC(=O)CC[C@H](NC(=O)CC[C@H](NC(=O)COCCOCCNC(=O)COCCOCCNC(=O)CC[C@H](NC(=O)CC[C@H](NC(=O)CCCCCCCCCCCCCCCCC(=O)O)C(=O)O)C(=O)O)C(=O)O)C(=O)O)C(=O)N[C@H](C(N)=O)[C@@H](C)O
notes: also called Chem. 25; Chem 25
B3: N^ε29-[(4S)-4-carboxy-4-[[(4S)-4-carboxy-4-[[2-[2-[2-[[2-[2-[2-[[(4S)-4-carboxy-4-(17-carboxyheptadecanoylamino)butanoyl]amino]ethoxy]ethoxy]acetyl]amino]ethoxy … (peptide)
peptide: H[Aib]QGTFTSDLSKYLDARRAREFVQWLINK([γGlu-γGlu-AEEA-AEEA-γGlu-C18 diacid])-NH2
modifications: N-terminus assumed
SMILES: CC[C@H](C)[C@H](NC(=O)[C@H](CC(C)C)NC(=O)[C@H](Cc1c[nH]c2ccccc12)NC(=O)[C@H](CCC(N)=O)NC(=O)[C@@H](NC(=O)[C@H](Cc1ccccc1)NC(=O)[C@H](CCC(=O)O)NC(=O)[C@H](CCCNC(=N)N)NC(=O)[C@H](C)NC(=O)[C@H](CCCNC(=N)N)NC(=O)[C@H](CCCNC(=N)N)NC(=O)[C@H](C)NC(=O)[C@H](CC(=O)O)NC(=O)[C@H](CC(C)C)NC(=O)[C@H](Cc1ccc(O)cc1)NC(=O)[C@H](CCCCN)NC(=O)[C@H](CO)NC(=O)[C@H](CC(C)C)NC(=O)[C@H](CC(=O)O)NC(=O)[C@H](CO)NC(=O)[C@@H](NC(=O)[C@H](Cc1ccccc1)NC(=O)[C@@H](NC(=O)CNC(=O)[C@H](CCC(N)=O)NC(=O)C(C)(C)NC(=O)[C@@H](N)Cc1c[nH]cn1)[C@@H](C)O)[C@@H](C)O)C(C)C)C(=O)N[C@@H](CC(N)=O)C(=O)N[C@@H](CCCCNC(=O)CC[C@H](NC(=O)CC[C@H](NC(=O)COCCOCCNC(=O)COCCOCCNC(=O)CC[C@H](NC(=O)CCCCCCCCCCCCCCCCC(=O)O)C(=O)O)C(=O)O)C(=O)O)C(N)=O
notes: also called Chem. 21; Chem 21
B4: N^ε29-[(4S)-4-carboxy-4-[[(4S)-4-carboxy-4-[[2-[2-[2-[[2-[2-[2-[[(4S)-4-carboxy-4-(17-carboxyheptadecanoylamino)butanoyl]amino]ethoxy]ethoxy]acetyl]amino]ethoxy … (peptide)
peptide: H[Aib]QGTFTSDLSKYLDARRARDFVQWLINK([γGlu-γGlu-AEEA-AEEA-γGlu-C18 diacid])-NH2
modifications: N-terminus assumed
SMILES: CC[C@H](C)[C@H](NC(=O)[C@H](CC(C)C)NC(=O)[C@H](Cc1c[nH]c2ccccc12)NC(=O)[C@H](CCC(N)=O)NC(=O)[C@@H](NC(=O)[C@H](Cc1ccccc1)NC(=O)[C@H](CC(=O)O)NC(=O)[C@H](CCCNC(=N)N)NC(=O)[C@H](C)NC(=O)[C@H](CCCNC(=N)N)NC(=O)[C@H](CCCNC(=N)N)NC(=O)[C@H](C)NC(=O)[C@H](CC(=O)O)NC(=O)[C@H](CC(C)C)NC(=O)[C@H](Cc1ccc(O)cc1)NC(=O)[C@H](CCCCN)NC(=O)[C@H](CO)NC(=O)[C@H](CC(C)C)NC(=O)[C@H](CC(=O)O)NC(=O)[C@H](CO)NC(=O)[C@@H](NC(=O)[C@H](Cc1ccccc1)NC(=O)[C@@H](NC(=O)CNC(=O)[C@H](CCC(N)=O)NC(=O)C(C)(C)NC(=O)[C@@H](N)Cc1c[nH]cn1)[C@@H](C)O)[C@@H](C)O)C(C)C)C(=O)N[C@@H](CC(N)=O)C(=O)N[C@@H](CCCCNC(=O)CC[C@H](NC(=O)CC[C@H](NC(=O)COCCOCCNC(=O)COCCOCCNC(=O)CC[C@H](NC(=O)CCCCCCCCCCCCCCCCC(=O)O)C(=O)O)C(=O)O)C(=O)O)C(N)=O
notes: also called Chem. 20; Chem 20
B5: N^ε28-[(4S)-4-carboxy-4-[[(4S)-4-carboxy-4-[[2-[2-[2-[[2-[2-[2-[[(4S)-4-carboxy-4-[[(4S)-4-carboxy-4-(17-carboxyheptadecanoylamino)butanoyl]amino]butanoyl]amino … (peptide)
peptide: H[Ac4c]QGTFTSDLSRYLESRRAREFVQWLIK([γGlu-γGlu-AEEA-AEEA-γGlu-γGlu-C18 diacid])T-NH2
modifications: N-terminus assumed
SMILES: CC[C@H](C)[C@H](NC(=O)[C@H](CC(C)C)NC(=O)[C@H](Cc1c[nH]c2ccccc12)NC(=O)[C@H](CCC(N)=O)NC(=O)[C@@H](NC(=O)[C@H](Cc1ccccc1)NC(=O)[C@H](CCC(=O)O)NC(=O)[C@H](CCCNC(=N)N)NC(=O)[C@H](C)NC(=O)[C@H](CCCNC(=N)N)NC(=O)[C@H](CCCNC(=N)N)NC(=O)[C@H](CO)NC(=O)[C@H](CCC(=O)O)NC(=O)[C@H](CC(C)C)NC(=O)[C@H](Cc1ccc(O)cc1)NC(=O)[C@H](CCCNC(=N)N)NC(=O)[C@H](CO)NC(=O)[C@H](CC(C)C)NC(=O)[C@H](CC(=O)O)NC(=O)[C@H](CO)NC(=O)[C@@H](NC(=O)[C@H](Cc1ccccc1)NC(=O)[C@@H](NC(=O)CNC(=O)[C@H](CCC(N)=O)NC(=O)C1(NC(=O)[C@@H](N)Cc2c[nH]cn2)CCC1)[C@@H](C)O)[C@@H](C)O)C(C)C)C(=O)N[C@@H](CCCCNC(=O)CC[C@H](NC(=O)CC[C@H](NC(=O)COCCOCCNC(=O)COCCOCCNC(=O)CC[C@H](NC(=O)CC[C@H](NC(=O)CCCCCCCCCCCCCCCCC(=O)O)C(=O)O)C(=O)O)C(=O)O)C(=O)O)C(=O)N[C@H](C(N)=O)[C@@H](C)O
notes: also called Chem. 17; Chem 17
B6: N^ε28-[(4S)-4-carboxy-4-[[(4S)-4-carboxy-4-[[2-[2-[2-[[2-[2-[2-[[(4S)-4-carboxy-4-[[(4S)-4-carboxy-4-(17-carboxyheptadecanoylamino)butanoyl]amino]butanoyl]amino … (peptide)
peptide: H[Ac4c]QGTFTSDISKYLESRRAREFVQWLIK([γGlu-γGlu-AEEA-AEEA-γGlu-γGlu-C18 diacid])T-NH2
modifications: N-terminus assumed
SMILES: CC[C@H](C)[C@H](NC(=O)[C@H](CC(=O)O)NC(=O)[C@H](CO)NC(=O)[C@@H](NC(=O)[C@H](Cc1ccccc1)NC(=O)[C@@H](NC(=O)CNC(=O)[C@H](CCC(N)=O)NC(=O)C1(NC(=O)[C@@H](N)Cc2c[nH]cn2)CCC1)[C@@H](C)O)[C@@H](C)O)C(=O)N[C@@H](CO)C(=O)N[C@@H](CCCCN)C(=O)N[C@@H](Cc1ccc(O)cc1)C(=O)N[C@@H](CC(C)C)C(=O)N[C@@H](CCC(=O)O)C(=O)N[C@@H](CO)C(=O)N[C@@H](CCCNC(=N)N)C(=O)N[C@@H](CCCNC(=N)N)C(=O)N[C@@H](C)C(=O)N[C@@H](CCCNC(=N)N)C(=O)N[C@@H](CCC(=O)O)C(=O)N[C@@H](Cc1ccccc1)C(=O)N[C@H](C(=O)N[C@@H](CCC(N)=O)C(=O)N[C@@H](Cc1c[nH]c2ccccc12)C(=O)N[C@@H](CC(C)C)C(=O)N[C@H](C(=O)N[C@@H](CCCCNC(=O)CC[C@H](NC(=O)CC[C@H](NC(=O)COCCOCCNC(=O)COCCOCCNC(=O)CC[C@H](NC(=O)CC[C@H](NC(=O)CCCCCCCCCCCCCCCCC(=O)O)C(=O)O)C(=O)O)C(=O)O)C(=O)O)C(=O)N[C@H](C(N)=O)[C@@H](C)O)[C@@H](C)CC)C(C)C
notes: also called Chem. 26; Chem 26

Key:
human GLP-1 receptor [1] = target: T1, human GLP-1 receptor (human, UniProt P43220 24-463); experiment: displacement of [125I]-GLP-1-(7-36)NH2 from BHK membranes with human GLP-1R, SPA, no serum albumin
T1 construct: whole, on cells; reporter assay used whole cells

human glucagon receptor [2] = target: T2, human glucagon receptor (human, UniProt P47871 26-477); experiment: displacement of [125I]-glucagon from BHK membranes with human glucagon receptor, SPA, no serum albumin
T2 construct: whole, on cells; reporter assay used whole cells; also called hGCGR
T2 sequence (P47871 26-477): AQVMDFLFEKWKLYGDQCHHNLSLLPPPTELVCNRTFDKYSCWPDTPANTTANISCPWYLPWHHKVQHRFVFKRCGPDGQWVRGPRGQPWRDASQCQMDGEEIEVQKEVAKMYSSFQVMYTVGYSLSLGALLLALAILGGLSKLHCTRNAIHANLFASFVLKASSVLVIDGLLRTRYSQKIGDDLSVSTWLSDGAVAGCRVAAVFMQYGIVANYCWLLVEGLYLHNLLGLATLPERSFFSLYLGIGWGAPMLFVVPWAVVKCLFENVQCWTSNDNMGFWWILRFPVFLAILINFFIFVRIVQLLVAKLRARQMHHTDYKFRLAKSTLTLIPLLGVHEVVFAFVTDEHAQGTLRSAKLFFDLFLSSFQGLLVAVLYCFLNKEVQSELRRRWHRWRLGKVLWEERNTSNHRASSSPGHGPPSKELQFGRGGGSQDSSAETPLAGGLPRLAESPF

human glucagon receptor [3] = target: T2, human glucagon receptor; experiment: cell-based or functional assay
human GLP-1 receptor [4] = target: T1, human GLP-1 receptor; experiment: cell-based or functional assay

Binder	IC50 (human GLP-1 receptor [1])	IC50 (human glucagon receptor [2])	GlucagonR EC50 (pM), [Assay (I)(b)], CRE luciferase reporter, BHK cells (human glucagon receptor [3])	GLP-1R EC50 (pM) [Assay (I)(a)], CRE luciferase reporter, BHK cells (human GLP-1 receptor [4])
B1	2.2 nM	7 nM	66 pM	3 pM
B2	0.1 nM	11.2 nM	52 pM	2 pM
H[Aib]QGTFTSDLSRYLDARRARDFVQWLIK([γGlu-γGlu-γGlu-C18 diacid])T-NH2 (also called Chem. 14; Chem 14)	0.1 nM	6.4 nM	9 pM	2 pM
H[Ac4c]QGTFTSDLSKYLESRRAREFVQWLIK([γGlu-γGlu-AEEA-AEEA-γGlu-γGlu-C18 diacid])T-NH2 (also called Chem. 13; Chem 13)	0.1 nM	1.8 nM	23 pM	4 pM
B3	0.1 nM	8.7 nM	31 pM	3 pM
B4	0.1 nM	13.6 nM	70 pM	4 pM
B5	0.1 nM	4.3 nM	45 pM	4 pM
B6	0.4 nM	10.1 nM	42 pM	2 pM
